This passage reports Relative antifungal activity (% of control activity) after protease digestion (% of control activity), peptides separated by RP-HPLC after digestion (separable peptides) and protein fragments separated by RP-HPLC after digestion (protein fragments) results from patent publication US5773694.

For test [1], the target named is Ace-AMP1 (Allium cepa - Antimicrobial Protein 1), mature protein purified from Allium cepa seeds (Allium cepa).
Test [2] concerns the target reduced and S-carboxyamidomethylated Ace-AMP1 (Allium cepa).

With Chymotrypsin (enzyme), the Relative antifungal activity (% of control activity) after protease digestion (% of control activity) in test [1] is 80.

As for Pronase E (enzyme), the Relative antifungal activity (% of control activity) after protease digestion (% of control activity) in test [1] was determined as 5.

In test [1], Proteinase K (enzyme) registered a Relative antifungal activity (% of control activity) after protease digestion (% of control activity) of 60.

Trypsin (enzyme) registered a Relative antifungal activity (% of control activity) after protease digestion (% of control activity) in test [1] of 90.

In test [2], “endoproteinase Arg-C (sequencing grade, Boehringer) (enzyme)” showed a peptides separated by RP-HPLC after digestion (separable peptides) of over 10.

In turn, “endoproteinase Asp-N (sequencing grade, Boehringer) (enzyme)” returned a protein fragments separated by RP-HPLC after digestion (protein fragments) in test [2] of 3.
